Patent US10030233B2, “Modified P450 reductase with N-terminal deletions and endoplasmic reticulum retention tag” (DE MONTFORT UNIVERSITY, priority 2013, dated 2018)

Tested on: CYP
Assay: CYP specific activity on co-expression of a CYP with the reductase
Format: biochemical
Settings: co-expressed with a CYP
Text: The activity of cytochrome P450 may be measured by the EROD assay or by other assays known in the art. The expression of cytochrome P450 may be measured using CO-difference spectra as is known in the art and is described in the examples herein.

B1: ΔN1hRD-M: human P450 reductase lacking N-terminal 24 amino acids, with C-terminal 12-amino acid c-myc tag; described in WO 2007/129050; gene SEQ ID NO: 5 (protein)
chain: MTDMILFSLIVGLLTYWFLFRKKKEEVPEFTKIQTLTSSVRESSFVEKMKKTGRNIIVFYGSQTGTAEEFANRLSKDAHRYGMRGMSADPEEYDLADLSSLPEIDNALVVFCMATYGEGDPTDNAQDFYDWLQETDVDLSGVKFAVFGLGNKTYEHFNAMGKYVDKRLEQLGAQRIFELGLGDDDGNLEEDFITWREQFWPAVCEHFGVEATGEESSIRQYELVVHTDIDAAKVYMGEMGRLKSYENQKPPFDAKNPFLAAVTTNRKLNQGTERHLMHLELDISDSKIRYESGDHVAVYPANDSALVNQLGKILGADLDVVMSLNNLDEESNKKHPFPCPTSYRTALTYYLDITNPPRTNVLYELAQYASEPSEQELLRKMASSSGEGKELYLSWVVEARRHILAILQDCPSLRPPIDHLCELLPRLQARYYSIASSSKVHPNSVHICAVVVEYETKAGRINKGVATNWLRAKEPAGENGGRALVPMFVRKSQFRLPFKATTPVIMVGPGTGVAPFIGFIQERAWLRQQGKEVGETLLYYGCRRSDEDYLYREELAQFHRDGALTQLNVAFSREQSHKVYVQHLLKQDREHLWKLIEGGAHIYVCGDARNMARDVQNTFYDIVAELGAMEHAQAVDYIKKLMTKGRYSLDVWSSSEQKLISEEDLNGSRL
modifications: delN1hRD-M
CYP specific activities: higher CYP specific activities
